Reference: the Immune Epitope Database (IEDB)

Assays:
[1] = biological target: HLA-A*69:01; experiment: IEDB peptide-MHC binding, purified MHC/competitive/fluorescence; filed as Kd, often an IC50 or EC50 that approximates it; ≥ and ≤ were set here for values at or beyond the usual limits of such assays; settings: source organism: human gammaherpesvirus 4
[2] = biological target: HLA-A*02:01; experiment: as above; settings: source organism: human gammaherpesvirus 4
[3] = biological target: HLA-A*02:19; experiment: as above; settings: source organism: human gammaherpesvirus 4
[4] = biological target: HLA-A*02:16; experiment: as above; settings: source organism: human gammaherpesvirus 4
[5] = biological target: HLA-A*02:12; experiment: as above; settings: source organism: human gammaherpesvirus 4
[6] = biological target: HLA-A*02:03; experiment: as above; settings: source organism: human gammaherpesvirus 4
[7] = biological target: HLA-A*02:11; experiment: as above; settings: source organism: human gammaherpesvirus 4
[8] = biological target: HLA-A*02:06; experiment: as above; settings: source organism: human gammaherpesvirus 4
[9] = biological target: HLA-A*02:01; experiment: IEDB peptide-MHC binding, cellular MHC/competitive/fluorescence; ≥ and ≤ were set here for values at or beyond the usual limits of such assays
[10] = biological target: HLA-C*05:01; experiment: IEDB peptide-MHC binding, purified MHC/direct/fluorescence; filed as Kd, often an IC50 or EC50 that approximates it; ≥ and ≤ were set here for values at or beyond the usual limits of such assays
[11] = biological target: HLA-C*08:02; experiment: as above
[12] = biological target: HLA-C*06:02; experiment: as above; settings: source organism: Entamoeba histolytica HM-1:IMSS
[13] = biological target: HLA-C*07:02; experiment: as above; settings: source organism: Entamoeba histolytica HM-1:IMSS
[14] = biological target: HLA-B*27:05; experiment: as above; settings: source organism: Burkholderia mallei
[15] = biological target: HLA-A*03:01; experiment: as above
[16] = biological target: HLA-B*07:02; experiment: as above; settings: source organism: Burkholderia mallei
[17] = biological target: HLA-A*69:01; experiment: as above
[18] = biological target: HLA-A*26:01; experiment: as above
[19] = biological target: HLA-B*08:01; experiment: as above; settings: source organism: Burkholderia mallei
[20] = biological target: HLA-B*40:01; experiment: as above; settings: source organism: Burkholderia mallei
[21] = biological target: HLA-A*02:01; experiment: as above
[22] = biological target: HLA-A*31:01; experiment: as above; settings: source organism: Burkholderia mallei
[23] = biological target: HLA-A*24:03; experiment: as above
[24] = biological target: HLA-B*35:01; experiment: as above; settings: source organism: Burkholderia mallei
[25] = biological target: HLA-B*15:01; experiment: as above
[26] = biological target: HLA-A*01:01; experiment: as above; settings: source organism: Burkholderia mallei
[27] = biological target: HLA-B*58:01; experiment: as above; settings: source organism: Burkholderia mallei
[28] = biological target: HLA-A*11:01; experiment: as above; settings: source organism: Burkholderia mallei
[29] = biological target: HLA-B*51:01; experiment: as above; settings: source organism: Toxoplasma gondii
[30] = biological target: HLA-B*18:01; experiment: as above; settings: source organism: Toxoplasma gondii
[31] = biological target: HLA-A*68:02; experiment: as above; settings: source organism: Toxoplasma gondii
[32] = biological target: HLA-B*57:01; experiment: as above; settings: source organism: Toxoplasma gondii
[33] = biological target: HLA-B*15:17; experiment: as above; settings: source organism: Toxoplasma gondii
[34] = biological target: HLA-B*27:03; experiment: as above; settings: source organism: Toxoplasma gondii
[35] = biological target: HLA-A*02:19; experiment: as above; settings: source organism: Toxoplasma gondii
[36] = biological target: HLA-A*02:16; experiment: as above; settings: source organism: Toxoplasma gondii
[37] = biological target: HLA-B*39:01; experiment: as above; settings: source organism: Toxoplasma gondii
[38] = biological target: HLA-B*46:01; experiment: as above; settings: source organism: Toxoplasma gondii
[39] = biological target: HLA-A*29:02; experiment: as above; settings: source organism: Toxoplasma gondii
[40] = biological target: HLA-A*23:01; experiment: as above; settings: source organism: Toxoplasma gondii
[41] = biological target: HLA-A*02:12; experiment: as above; settings: source organism: Toxoplasma gondii
[42] = biological target: HLA-A*02:03; experiment: as above; settings: source organism: Toxoplasma gondii
[43] = biological target: HLA-A*02:11; experiment: as above; settings: source organism: Toxoplasma gondii
[44] = biological target: HLA-B*14:02; experiment: as above; settings: source organism: Homo sapiens
[45] = biological target: HLA-B*51:01; experiment: IEDB peptide-MHC binding, purified MHC/competitive/fluorescence; filed as Kd, often an IC50 or EC50 that approximates it; ≥ and ≤ were set here for values at or beyond the usual limits of such assays; settings: source organism: Vaccinia virus WR
[46] = biological target: HLA-C*12:03; experiment: IEDB peptide-MHC binding, purified MHC/direct/fluorescence; filed as Kd, often an IC50 or EC50 that approximates it; ≥ and ≤ were set here for values at or beyond the usual limits of such assays; settings: source organism: Vaccinia virus WR
[47] = source organism: Entamoeba histolytica HM-1:IMSS
[48] = source organism: Burkholderia pseudomallei 91
[49] = source organism: Burkholderia mallei
[50] = source organism: Toxoplasma gondii
[51] = source organism: Camelpox virus M-96

**Q.** CLGGLLTMV was tested. Which Kd [1] did it give?
**A.** 3.17 µM

**Q.** And the Kd [2]?
**A.** 23 nM

**Q.** And the Kd [3]?
**A.** 7.5 nM

**Q.** And the Kd [4]?
**A.** ≤ 0.1 nM

**Q.** And the Kd [5]?
**A.** ≤ 1 nM

**Q.** And the Kd [6]?
**A.** 0.67 nM

**Q.** What about the Kd [7] of the same sequence?
**A.** ≤ 0.1 nM

**Q.** And the Kd [8]?
**A.** ≤ 0.1 nM

**Q.** And the IC50 ([9]; source organism: human gammaherpesvirus 4)?
**A.** 2500 nM

**Q.** How did the Kd [10, 47] turn out when FAMRLLQAV was run?
**A.** 3170 nM

**Q.** And the Kd [11, 47]?
**A.** 17 nM

**Q.** And the Kd [12]?
**A.** 844 nM

**Q.** And the Kd [13]?
**A.** 2890 nM

**Q.** Which results are given for ISDSAQNMM?
**A.** Kd [10, 48]: 3 nM; Kd [11, 48]: ≤ 1 nM; Kd [14]: ≥ 20 µM; Kd [15, 49]: ≥ 20 µM; Kd [16]: ≥ 20 µM; Kd [17, 49]: ≥ 20 µM; Kd [18, 49]: ≥ 20 µM; Kd [19]: ≥ 20 µM; Kd [20]: ≥ 20 µM; Kd [21, 49]: ≥ 20 µM; Kd [22]: ≥ 20 µM; Kd [23, 49]: ≥ 20 µM; Kd [24]: 40.2 nM; Kd [25, 49]: ≥ 20 µM; Kd [26]: 1040 nM; Kd [27]: 152 nM; Kd [28]: ≥ 20 µM

**Q.** With KMDASLGNLFA as the sequence, how does the IC50 ([9]; source organism: Homo sapiens) read?
**A.** 1110 nM

**Q.** Which IC50 ([9]; source organism: Homo sapiens) does the source give for LLLDVPTAAV here?
**A.** 530 nM

**Q.** Which results are given for LPPVVPPLI?
**A.** Kd [29]: 201 nM; Kd [15, 50]: ≥ 20 µM; Kd [30]: ≥ 20 µM; Kd [17, 50]: ≥ 20 µM; Kd [31]: ≥ 20 µM; Kd [32]: ≥ 20 µM; Kd [18, 50]: ≥ 20 µM; Kd [33]: ≥ 20 µM; Kd [34]: ≥ 20 µM; Kd [21, 50]: ≥ 20 µM; Kd [35]: ≥ 20 µM; Kd [36]: ≥ 20 µM; Kd [23, 50]: ≥ 20 µM; Kd [37]: ≥ 20 µM; Kd [25, 50]: ≥ 20 µM; Kd [38]: ≥ 20 µM; Kd [39]: ≥ 20 µM; Kd [40]: ≥ 20 µM; Kd [41]: ≥ 20 µM; Kd [42]: ≥ 20 µM; Kd [43]: ≥ 20 µM

**Q.** How did the Kd [44] turn out when LQVAHEEI was run?
**A.** 528 nM

**Q.** NQIIHRDL was tested. Which Kd [44] did it give?
**A.** 130 nM

**Q.** For VSPLHRVL, which Kd [44] is on record?
**A.** 89.6 nM

**Q.** Which Kd [45] does the source give for YLYETYHLI here?
**A.** 4 µM

**Q.** What about the Kd ([11]; source organism: Vaccinia virus WR) of the same sequence?
**A.** ≥ 20000 nM

**Q.** And the Kd [17, 51]?
**A.** 0.0038 µM

**Q.** What about the Kd [46] of the same sequence?
**A.** 155 nM

**Q.** What about the Kd [21, 51] of the same sequence?
**A.** 0.002 µM
